In the supplement of paper PMC10065799, “High-throughput profiling of sequence recognition by tyrosine kinases and SH2 domains using bacterial peptide display” (eLife, 2023):
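Note: 11-residue human phosphosite peptides and single-mutation variants displayed on the E. coli surface, counted by deep sequencing, each peptide's frequency after selection divided by its frequency in the unselected input library; frequency after pTyr selection over input frequency; kinase dosed for 20-30% of maximal phosphorylation in three min.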

These sequences were tested against FGFR3 (UniProt P22607) (assay: phosphorylation enrichment, bacterial display (enrichment ratio); higher = better substrate or ligand; peptides without Tyr show the background).
FGFR3, sequence (P22607 whole entry, looked up): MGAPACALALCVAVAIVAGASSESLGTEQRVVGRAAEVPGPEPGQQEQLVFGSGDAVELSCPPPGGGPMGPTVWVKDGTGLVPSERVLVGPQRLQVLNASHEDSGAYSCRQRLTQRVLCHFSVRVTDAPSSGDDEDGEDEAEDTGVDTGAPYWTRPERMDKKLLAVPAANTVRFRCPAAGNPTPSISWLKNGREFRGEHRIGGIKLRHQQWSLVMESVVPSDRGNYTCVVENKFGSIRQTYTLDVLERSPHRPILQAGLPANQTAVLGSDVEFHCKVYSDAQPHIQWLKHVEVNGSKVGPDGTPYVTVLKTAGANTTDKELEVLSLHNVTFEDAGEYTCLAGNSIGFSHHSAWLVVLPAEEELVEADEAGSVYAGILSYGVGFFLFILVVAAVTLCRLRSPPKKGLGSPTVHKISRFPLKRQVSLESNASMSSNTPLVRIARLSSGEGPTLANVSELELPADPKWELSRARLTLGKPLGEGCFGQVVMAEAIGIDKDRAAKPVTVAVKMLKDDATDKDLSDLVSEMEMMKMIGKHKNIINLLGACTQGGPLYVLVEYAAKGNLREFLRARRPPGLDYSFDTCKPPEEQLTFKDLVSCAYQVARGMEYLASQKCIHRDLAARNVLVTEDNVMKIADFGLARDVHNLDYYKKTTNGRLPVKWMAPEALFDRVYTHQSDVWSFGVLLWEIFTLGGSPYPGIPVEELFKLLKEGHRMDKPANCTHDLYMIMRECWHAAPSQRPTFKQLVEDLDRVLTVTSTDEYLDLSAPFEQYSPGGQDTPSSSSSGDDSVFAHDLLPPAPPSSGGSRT
Sequence VECHLYFTQPK [AKR1D1_Y199_P198L] has a phosphorylation enrichment of 0.946. Sequence AAPAAYDAADT [GAMT_Y27] has a phosphorylation enrichment of 0.683. VVCKNYAEAKD [ALB_Y343_D338V] gave a phosphorylation enrichment of 0.693. KRTFEYEADKN [DENND2B_Y396] showed a phosphorylation enrichment of 0.576. CRWKRYQRSHD [GDPD5_Y30] was tested, and the phosphorylation enrichment was 0.508. Sequence FNNFGYGSDGF [HNRNPH3_Y161_N163S_YF] has a phosphorylation enrichment of 0.593. WFKKFYDANCD [MAPRE2_Y158_Y162C] was tested, and the phosphorylation enrichment was 0.707. Sequence LIGWRYDDPEV [HSPA9_Y128_R126W] has a phosphorylation enrichment of 0.607. KITVIYDGACQ [VWDE_Y1035] showed a phosphorylation enrichment of 0.778. CQNRFYDAKVR [FKBP6_Y188_R183C] was tested, and the phosphorylation enrichment was 0.669. ATVQNYLPKCI [A2M_Y817_L815Q] showed a phosphorylation enrichment of 0.489. For RHPEVYHHLGV [NVL_Y290], the phosphorylation enrichment was 0.602. LQRCKNSHMEP [TEX45_Y434_Y434N] gave a phosphorylation enrichment of 0.729. GKVFVYHGSSL [ITGA7_Y458_I457V] gave a phosphorylation enrichment of 0.676. Sequence KQCSDYARELE [MYH3_Y1140_R1137C] has a phosphorylation enrichment of 0.769. Sequence LDLSYYTTSSS [EMD_Y182_P183T] has a phosphorylation enrichment of 1.21. Sequence RFLRGYHQDAF [HLA-A_Y137_R138H_YF] has a phosphorylation enrichment of 0.628. With HDKEYYSVHNK [MET_Y1235_Y1230H] the phosphorylation enrichment was 1.88. With ENSLDYGSAWA [AR_Y395_P392S] the phosphorylation enrichment was 0.591. FFTEEYVRDHP [DOCK2_Y1555] was tested, and the phosphorylation enrichment was 0.766. Work on DCAAIYGSEPE [AKR1A1_Y50_N52S] yielded a phosphorylation enrichment of 0.726. Work on VGAKTYKMSMA [CPS1_Y309_A304V] yielded a phosphorylation enrichment of 0.382. For AKFLGYPPPEI [KDR_Y357_YF], the phosphorylation enrichment was 0.609. In the case of TEHMAYCPIQC [SHC4_Y403_Q400H], the phosphorylation enrichment is reported as 0.638. In the case of NLSVHYDSSLK [ABCC8_Y1353_R1352H], the phosphorylation enrichment is reported as 0.603. For GGEEFYVHYVG [KAT8_Y90_R86G], the phosphorylation enrichment was 0.849. In the case of QKKEEYKMALF [F8_Y1990_R1985Q_YF], the phosphorylation enrichment is reported as 0.509. Sequence GKLIFHDLRGE [KARS1_Y145_Y145H] has a phosphorylation enrichment of 0.575. Sequence HDRGNYVRLNM [RECQL4_Y353] has a phosphorylation enrichment of 0.943. RHPLEYLRQFP [NARS2_Y138_YF] was tested, and the phosphorylation enrichment was 0.365. RCQDLYSARDL [SART1_Y249_R245C] gave a phosphorylation enrichment of 1.22. For IEEGTYGVAFR [CDK11B_Y449_V452A_YF], the phosphorylation enrichment was 0.915. Work on SEKVVYQRFTE [NCF1_Y41_R42Q] yielded a phosphorylation enrichment of 0.542.

Each sequence was assayed on Fer (mouse) in the same assay as above.
VECHLYFTQPK [AKR1D1_Y199_P198L] gave a phosphorylation enrichment of 0.645. With AAPAAYDAADT [GAMT_Y27] the phosphorylation enrichment was 0.526. VVCKNYAEAKD [ALB_Y343_D338V] gave a phosphorylation enrichment of 0.5. With KRTFEYEADKN [DENND2B_Y396] the phosphorylation enrichment was 0.496. For CRWKRYQRSHD [GDPD5_Y30], the phosphorylation enrichment was 0.469. With FNNFGYGSDGF [HNRNPH3_Y161_N163S_YF] the phosphorylation enrichment was 0.455. WFKKFYDANCD [MAPRE2_Y158_Y162C] gave a phosphorylation enrichment of 0.453. LIGWRYDDPEV [HSPA9_Y128_R126W] showed a phosphorylation enrichment of 0.416. Work on KITVIYDGACQ [VWDE_Y1035] yielded a phosphorylation enrichment of 0.574. Work on CQNRFYDAKVR [FKBP6_Y188_R183C] yielded a phosphorylation enrichment of 0.426. With ATVQNYLPKCI [A2M_Y817_L815Q] the phosphorylation enrichment was 0.406. Work on RHPEVYHHLGV [NVL_Y290] yielded a phosphorylation enrichment of 0.423. LQRCKNSHMEP [TEX45_Y434_Y434N] was tested, and the phosphorylation enrichment was 0.782. Sequence GKVFVYHGSSL [ITGA7_Y458_I457V] has a phosphorylation enrichment of 0.476. Work on KQCSDYARELE [MYH3_Y1140_R1137C] yielded a phosphorylation enrichment of 0.578. In the case of LDLSYYTTSSS [EMD_Y182_P183T], the phosphorylation enrichment is reported as 0.635. In the case of RFLRGYHQDAF [HLA-A_Y137_R138H_YF], the phosphorylation enrichment is reported as 0.569. With HDKEYYSVHNK [MET_Y1235_Y1230H] the phosphorylation enrichment was 0.865. In the case of ENSLDYGSAWA [AR_Y395_P392S], the phosphorylation enrichment is reported as 0.457. In the case of FFTEEYVRDHP [DOCK2_Y1555], the phosphorylation enrichment is reported as 0.452. Work on DCAAIYGSEPE [AKR1A1_Y50_N52S] yielded a phosphorylation enrichment of 0.599. VGAKTYKMSMA [CPS1_Y309_A304V] showed a phosphorylation enrichment of 0.268. AKFLGYPPPEI [KDR_Y357_YF] was tested, and the phosphorylation enrichment was 0.459. Sequence TEHMAYCPIQC [SHC4_Y403_Q400H] has a phosphorylation enrichment of 0.557. For NLSVHYDSSLK [ABCC8_Y1353_R1352H], the phosphorylation enrichment was 0.437. GGEEFYVHYVG [KAT8_Y90_R86G] showed a phosphorylation enrichment of 0.532. QKKEEYKMALF [F8_Y1990_R1985Q_YF] showed a phosphorylation enrichment of 0.498. GKLIFHDLRGE [KARS1_Y145_Y145H] showed a phosphorylation enrichment of 0.389. HDRGNYVRLNM [RECQL4_Y353] gave a phosphorylation enrichment of 0.671. RHPLEYLRQFP [NARS2_Y138_YF] was tested, and the phosphorylation enrichment was 0.275. For RCQDLYSARDL [SART1_Y249_R245C], the phosphorylation enrichment was 2.59. IEEGTYGVAFR [CDK11B_Y449_V452A_YF] was tested, and the phosphorylation enrichment was 4.45. SEKVVYQRFTE [NCF1_Y41_R42Q] was tested, and the phosphorylation enrichment was 0.508.

What follows are sequences tested against Fes (UniProt P07332) in the same assay as above.
Fes, sequence (P07332 whole entry, looked up): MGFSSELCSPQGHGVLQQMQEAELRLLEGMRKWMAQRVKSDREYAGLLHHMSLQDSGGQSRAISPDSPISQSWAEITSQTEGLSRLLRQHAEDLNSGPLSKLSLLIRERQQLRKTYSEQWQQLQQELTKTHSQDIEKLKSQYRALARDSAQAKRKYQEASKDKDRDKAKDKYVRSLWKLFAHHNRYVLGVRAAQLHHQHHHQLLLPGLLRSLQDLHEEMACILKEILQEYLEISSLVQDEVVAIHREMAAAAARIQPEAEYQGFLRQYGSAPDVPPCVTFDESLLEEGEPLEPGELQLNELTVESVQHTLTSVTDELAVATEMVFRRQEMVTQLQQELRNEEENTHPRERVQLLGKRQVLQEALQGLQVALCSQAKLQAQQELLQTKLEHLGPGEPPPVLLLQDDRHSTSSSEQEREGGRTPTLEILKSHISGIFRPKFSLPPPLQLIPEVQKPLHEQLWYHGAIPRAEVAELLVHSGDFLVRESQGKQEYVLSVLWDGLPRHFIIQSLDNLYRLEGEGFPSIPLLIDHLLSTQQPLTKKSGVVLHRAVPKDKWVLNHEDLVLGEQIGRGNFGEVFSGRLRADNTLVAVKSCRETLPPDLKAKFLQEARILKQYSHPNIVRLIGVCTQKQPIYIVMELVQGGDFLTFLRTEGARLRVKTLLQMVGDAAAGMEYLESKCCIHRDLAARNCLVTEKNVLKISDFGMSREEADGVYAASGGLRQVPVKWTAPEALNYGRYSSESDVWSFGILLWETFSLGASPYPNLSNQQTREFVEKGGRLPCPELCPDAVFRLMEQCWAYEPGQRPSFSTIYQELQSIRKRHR
VECHLYFTQPK [AKR1D1_Y199_P198L] showed a phosphorylation enrichment of 1.33. For AAPAAYDAADT [GAMT_Y27], the phosphorylation enrichment was 0.97. For VVCKNYAEAKD [ALB_Y343_D338V], the phosphorylation enrichment was 1.1. Work on KRTFEYEADKN [DENND2B_Y396] yielded a phosphorylation enrichment of 1.03. In the case of CRWKRYQRSHD [GDPD5_Y30], the phosphorylation enrichment is reported as 0.563. Work on FNNFGYGSDGF [HNRNPH3_Y161_N163S_YF] yielded a phosphorylation enrichment of 0.962. WFKKFYDANCD [MAPRE2_Y158_Y162C] showed a phosphorylation enrichment of 1.21. In the case of LIGWRYDDPEV [HSPA9_Y128_R126W], the phosphorylation enrichment is reported as 1.24. With KITVIYDGACQ [VWDE_Y1035] the phosphorylation enrichment was 1.28. CQNRFYDAKVR [FKBP6_Y188_R183C] was tested, and the phosphorylation enrichment was 0.897. Sequence ATVQNYLPKCI [A2M_Y817_L815Q] has a phosphorylation enrichment of 0.862. With RHPEVYHHLGV [NVL_Y290] the phosphorylation enrichment was 0.787. For LQRCKNSHMEP [TEX45_Y434_Y434N], the phosphorylation enrichment was 0.865. Sequence GKVFVYHGSSL [ITGA7_Y458_I457V] has a phosphorylation enrichment of 1.06. Sequence KQCSDYARELE [MYH3_Y1140_R1137C] has a phosphorylation enrichment of 1.26. LDLSYYTTSSS [EMD_Y182_P183T] was tested, and the phosphorylation enrichment was 1.36. RFLRGYHQDAF [HLA-A_Y137_R138H_YF] gave a phosphorylation enrichment of 0.886. Sequence HDKEYYSVHNK [MET_Y1235_Y1230H] has a phosphorylation enrichment of 0.729. With ENSLDYGSAWA [AR_Y395_P392S] the phosphorylation enrichment was 0.975. Work on FFTEEYVRDHP [DOCK2_Y1555] yielded a phosphorylation enrichment of 0.915. Work on DCAAIYGSEPE [AKR1A1_Y50_N52S] yielded a phosphorylation enrichment of 1.34. In the case of VGAKTYKMSMA [CPS1_Y309_A304V], the phosphorylation enrichment is reported as 0.524. Work on AKFLGYPPPEI [KDR_Y357_YF] yielded a phosphorylation enrichment of 0.902. Work on TEHMAYCPIQC [SHC4_Y403_Q400H] yielded a phosphorylation enrichment of 0.821. For NLSVHYDSSLK [ABCC8_Y1353_R1352H], the phosphorylation enrichment was 0.922. GGEEFYVHYVG [KAT8_Y90_R86G] was tested, and the phosphorylation enrichment was 1.21. In the case of QKKEEYKMALF [F8_Y1990_R1985Q_YF], the phosphorylation enrichment is reported as 0.866. Sequence GKLIFHDLRGE [KARS1_Y145_Y145H] has a phosphorylation enrichment of 0.802. In the case of HDRGNYVRLNM [RECQL4_Y353], the phosphorylation enrichment is reported as 1.3. With RHPLEYLRQFP [NARS2_Y138_YF] the phosphorylation enrichment was 0.612. Work on RCQDLYSARDL [SART1_Y249_R245C] yielded a phosphorylation enrichment of 1.76. In the case of IEEGTYGVAFR [CDK11B_Y449_V452A_YF], the phosphorylation enrichment is reported as 1.11. With SEKVVYQRFTE [NCF1_Y41_R42Q] the phosphorylation enrichment was 0.763.

The sequences below were run against Fyn (UniProt P06241) in the same assay as above.
Fyn, sequence (P06241 whole entry, looked up): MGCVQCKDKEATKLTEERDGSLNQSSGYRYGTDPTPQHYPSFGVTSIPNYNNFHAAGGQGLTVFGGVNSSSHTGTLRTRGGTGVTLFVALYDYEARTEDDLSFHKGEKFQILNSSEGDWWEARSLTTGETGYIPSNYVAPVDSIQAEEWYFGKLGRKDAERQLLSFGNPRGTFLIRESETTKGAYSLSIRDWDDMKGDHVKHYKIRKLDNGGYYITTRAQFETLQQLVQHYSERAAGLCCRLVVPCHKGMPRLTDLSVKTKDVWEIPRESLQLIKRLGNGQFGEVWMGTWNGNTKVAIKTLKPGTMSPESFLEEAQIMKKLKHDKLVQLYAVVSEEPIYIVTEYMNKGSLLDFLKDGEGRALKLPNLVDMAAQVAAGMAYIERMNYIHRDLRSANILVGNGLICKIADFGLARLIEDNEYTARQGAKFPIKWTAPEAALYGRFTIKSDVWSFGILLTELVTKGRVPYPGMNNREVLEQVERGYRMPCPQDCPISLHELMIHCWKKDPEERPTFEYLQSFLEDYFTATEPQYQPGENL
VECHLYFTQPK [AKR1D1_Y199_P198L] was tested, and the phosphorylation enrichment was 0.588. With AAPAAYDAADT [GAMT_Y27] the phosphorylation enrichment was 0.522. For VVCKNYAEAKD [ALB_Y343_D338V], the phosphorylation enrichment was 0.512. KRTFEYEADKN [DENND2B_Y396] showed a phosphorylation enrichment of 0.471. With CRWKRYQRSHD [GDPD5_Y30] the phosphorylation enrichment was 0.472. FNNFGYGSDGF [HNRNPH3_Y161_N163S_YF] gave a phosphorylation enrichment of 0.442. Work on WFKKFYDANCD [MAPRE2_Y158_Y162C] yielded a phosphorylation enrichment of 0.46. LIGWRYDDPEV [HSPA9_Y128_R126W] gave a phosphorylation enrichment of 0.538. KITVIYDGACQ [VWDE_Y1035] gave a phosphorylation enrichment of 0.51. With CQNRFYDAKVR [FKBP6_Y188_R183C] the phosphorylation enrichment was 0.373. Work on ATVQNYLPKCI [A2M_Y817_L815Q] yielded a phosphorylation enrichment of 0.369. RHPEVYHHLGV [NVL_Y290] showed a phosphorylation enrichment of 0.419. Sequence LQRCKNSHMEP [TEX45_Y434_Y434N] has a phosphorylation enrichment of 0.956. Work on GKVFVYHGSSL [ITGA7_Y458_I457V] yielded a phosphorylation enrichment of 0.449. KQCSDYARELE [MYH3_Y1140_R1137C] gave a phosphorylation enrichment of 0.552. For LDLSYYTTSSS [EMD_Y182_P183T], the phosphorylation enrichment was 0.967. RFLRGYHQDAF [HLA-A_Y137_R138H_YF] showed a phosphorylation enrichment of 0.569. Work on HDKEYYSVHNK [MET_Y1235_Y1230H] yielded a phosphorylation enrichment of 0.739. ENSLDYGSAWA [AR_Y395_P392S] was tested, and the phosphorylation enrichment was 0.556. For FFTEEYVRDHP [DOCK2_Y1555], the phosphorylation enrichment was 0.44. Work on DCAAIYGSEPE [AKR1A1_Y50_N52S] yielded a phosphorylation enrichment of 0.968. VGAKTYKMSMA [CPS1_Y309_A304V] gave a phosphorylation enrichment of 0.399. For AKFLGYPPPEI [KDR_Y357_YF], the phosphorylation enrichment was 0.426. TEHMAYCPIQC [SHC4_Y403_Q400H] gave a phosphorylation enrichment of 0.466. With NLSVHYDSSLK [ABCC8_Y1353_R1352H] the phosphorylation enrichment was 0.424. In the case of GGEEFYVHYVG [KAT8_Y90_R86G], the phosphorylation enrichment is reported as 0.547. QKKEEYKMALF [F8_Y1990_R1985Q_YF] was tested, and the phosphorylation enrichment was 0.421. For GKLIFHDLRGE [KARS1_Y145_Y145H], the phosphorylation enrichment was 0.369. HDRGNYVRLNM [RECQL4_Y353] showed a phosphorylation enrichment of 0.993. With RHPLEYLRQFP [NARS2_Y138_YF] the phosphorylation enrichment was 0.342. With RCQDLYSARDL [SART1_Y249_R245C] the phosphorylation enrichment was 4.61. IEEGTYGVAFR [CDK11B_Y449_V452A_YF] showed a phosphorylation enrichment of 7.47. For SEKVVYQRFTE [NCF1_Y41_R42Q], the phosphorylation enrichment was 0.889.
